From publication PMC11889585, “Characterization of the putative yeast mitochondrial triacylglycerol lipase Tgl2” (The Journal of Biological Chemistry, 2025)

Target: T1, N terminally FLAG-tagged Tgl2 (S. cerevisiae, UniProt P54857 1-326)
T1 construct: Tgl2, S. cerevisiae; FLAG tag inserted at the N terminus of the ORF of Tgl2; the printed primer puts Met-FLAG directly before the second codon (AAA) of Tgl2; also called FLAG-Tgl2; source: S. cerevisiae tgl2Δ cells, coexpressed with HA-Tgl2 from plasmid pYX122; in solubilised mitochondria; not shown: FLAG, N-terminal, kept
T1 sequence (looked up): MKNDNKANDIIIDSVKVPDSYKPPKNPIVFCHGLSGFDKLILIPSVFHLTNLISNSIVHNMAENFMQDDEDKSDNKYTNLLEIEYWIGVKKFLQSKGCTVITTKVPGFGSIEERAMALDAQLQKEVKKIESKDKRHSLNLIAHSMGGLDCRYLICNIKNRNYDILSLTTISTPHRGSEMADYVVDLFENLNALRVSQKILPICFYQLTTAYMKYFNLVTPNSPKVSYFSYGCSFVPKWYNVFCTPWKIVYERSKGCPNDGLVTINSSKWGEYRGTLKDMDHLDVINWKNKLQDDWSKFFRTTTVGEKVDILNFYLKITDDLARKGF
Assay: native gel or EMSA; antibody shift assay: digitonin-solubilised mitochondria with HA-Tgl2 and FLAG-Tgl2 incubated with 0, 0.5 or 1 μl anti-HA antibody on ice for 30 min, BN-PAGE, immunodecoration with anti-FLAG
Details: partners not purified

B1: N terminally hemagglutinin (HA) tagged Tgl2 (natural protein, S. cerevisiae, UniProt P54857 1-326, looked up)
chain: T1 sequence (looked up)
notes: Tgl2, putative mitochondrial triacylglycerol lipase of the intermembrane space, S. cerevisiae; also called HA-Tgl2; native-like HA-Tgl2; source: S. cerevisiae (tgl2Δ, yme1Δ and other deletion strains), overexpressed from plasmid pYX142; in whole cell lysate, crude or isolated mitochondria; not shown: HA, N-terminal, kept
For B1, the “stoichiometry N” value was no less than 2.
